The text below walks through data of the supplement of paper PMC10567573.

± gives the standard deviation.

The data set in a line: protein stability index of a GFP-peptide fusion (GPS, HEK-293T) (PSI 1-6); higher = more stable.
[1] abbreviates: treatment: DMSO, c terminus: a fixed tail appended.
[2] abbreviates: treatment: MLN4924 1 uM, 8 h, c terminus: a fixed tail appended.
[3] abbreviates: treatment: DMSO, c terminus: native.
The mark [4] stands for this setting: treatment: MLN4924 1 uM, 8 h, c terminus: native.
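Note: 24-mer peptide tiles fused after GFP, lentivirally expressed, FACS-sorted into six equal bins by GFP/DsRed ratio, decoded by Illumina sequencing, PSI is the read-weighted mean bin number.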

On to LEAGADQEHKTDEMHTALMEACMD [ANKRD17], for which the protein stability index by setting is: under setting [1], 5.52 ± 0.37; under setting [2], 5.34 ± 0.28.
The matching figures for LEANADTSVEEESFGPQPISRLEQ [RAD51]: 5.38 ± 0.2 and 5.44 ± 0.18.
The like results for LEIELQSQLSMKASLENSLEETKG [KRT16] were, in that order, 5.28 ± 0.066 and 5.16 ± 0.17.
The like results for LELHDYHDIIKHPMDLSTVKRKMD [BRD3] were, in that order, 4.05 ± 0.19 and 3.98 ± 0.34.
LFLGQGIQVSLYCQEWYARRHCPL [SOAT2]: the protein stability index is 2.83 ± 0.46 under setting [1] and 2.57 ± 0.46 under setting [2].
In the case of LFVLELEWVLSTGQDKQFAWHCSE [WDFY2], the protein stability index was found to be 2.99 ± 0.34 under setting [1] and 2.77 ± 0.72 under setting [2].
The matching figures for LFVTFLLIYMVTIMGNLLIIVTIM [OR4A15]: 3.06 ± 0.41 and 3.29 ± 0.53.
The matching figures for LGDRLNVEVDAAPAVDLNQVLNET [KRT33B]: 4.93 ± 0.14 and 4.96 ± 0.097.
The like results for LGIPKSTTSDIPHMLNQVESKVKD [FAM98B] were, in that order, 5.04 ± 0.27 and 5.23 ± 0.11.
On to LGLVGYYIFRVANHQKDLFRRTDG [DHCR7], for which the protein stability index was found to be 2.45 ± 0.2 under setting [1] and 2.6 ± 0.31 under setting [2].
LGLYINFRHLYKQRRRRYGQKKKK [HACD3]: the protein stability index under setting [1] was found to be 2.37 ± 0.22 and the protein stability index under setting [2] came to 2.61 ± 0.34.
For LGMYQKVTSYCRSATLVGFTVGSV [SLC19A2], the protein stability index under setting [1] came to 2.74 ± 0.6 and the protein stability index under setting [2] was 2.73 ± 0.41.
Consider LGNGNDKKEMNKSDLNTNNLLFKP [KMT2E], for which the protein stability index under setting [1] is 4.65 ± 0.25 and the protein stability index under setting [2] was 4.34 ± 0.32.
For the sequence LGPSLEDLFDLCDRTFTLKTVLMI [CSNK1G1], the protein stability index by setting is: under setting [1], 2.69 ± 0.82; under setting [2], 2.56 ± 0.9.
The matching figures for LGVDTAETSYLEMAAGSEPESVEA [KMT2E]: 5.27 ± 0.32 and 5.5 ± 0.42.
Consider LHCWLNAFAEMLRFGDRMFYKDWW [SOAT1], for which the protein stability index reads like this: under setting [1], 2.97 ± 0.3; under setting [2], 2.77 ± 0.6.
The like results for LHDIFENKTDVVLILELVSGGELF [DAPK3] were, in that order, 1.87 ± 0.37 and 2.39 ± 0.58.
The matching figures for LHEALLEYEAGRAGPGGGAERRRA [ESRRA]: 4.27 ± 0.34 and 4.82 ± 0.18.
Turning to LHYAAASDMDRNKTILGNAHDNSE [ANKRD44], the protein stability index is, setting by setting: under setting [1], 4.76 ± 0.15; under setting [2], 4.9 ± 0.044.
The matching figures for LIQNEYRNGGSLADAISENYRIMS [WEE1]: 2.38 ± 0.31 and 2.5 ± 0.48.
As to LIRYICGVVHPSNEVLSSDILPRW [INTS3], the protein stability index reads like this: under setting [1], 2.66 ± 0.26; under setting [2], 2.56 ± 0.49.
The like results for LISHVLEQNQEGDAAYRKALDLAR [AUH] were, in that order, 3.38 ± 0.55 and 3.09 ± 0.19.
Turning to LISKLPYIHFFHTVLKQIAPEYFE [DENND6A], the protein stability index is, setting by setting: under setting [1], 2.64 ± 0.28; under setting [2], 2.37 ± 0.63.
In turn, LIVVTQSHLVIHNLFEGMIWFIVP [CDS2] showed a protein stability index under setting [1] of 3.06 ± 0.41 and a protein stability index under setting [2] of 3.25 ± 0.59.
In the case of LKFHKLVNVTIHFRLKTINLQSLI [MCOLN1], the protein stability index was 3.17 ± 0.37 under setting [1] and 3.12 ± 0.31 under setting [2].
For LKNKCCPPPCKFGEGKLSKRLKHK [C22orf31], the protein stability index came to 3.49 ± 0.21 under setting [1] and 3.74 ± 0.48 under setting [2].
The like results for LKPLLSPSSETTVTVELPEADRAG [LYSMD4] were, in that order, 5.04 ± 0.23 and 5.07 ± 0.28.
The like results for LKSAKDLPPDALIIEYRGKFMLRE [KMT2E] were, in that order, 2.15 ± 0.4 and 2.38 ± 0.43.
The matching figures for LKVGGILVMPLEEKLTKITRTGPS [PCMTD2]: 2.4 ± 0.21 and 2.16 ± 0.41.
LKVRYRERITILRGNHESRQITQV [PPP2CA]: the protein stability index amounted to 2.37 ± 0.19 under setting [1] and 2.42 ± 0.32 under setting [2].
The matching figures for LLDKLAKENQDIRLLQAQLQAQKE [PBXIP1]: 4.37 ± 0.33 and 4.21 ± 0.27.
With LLEEGGLVQVESVNLQVATYSKFQ [UFD1], the protein stability index is, setting by setting: under setting [1], 2.85 ± 0.32; under setting [2], 2.9 ± 0.31.
With LLEERRPADSAQLLSLNSLLPESG [TFE3], the protein stability index was 4.37 ± 0.42 under setting [1] and 4.54 ± 0.24 under setting [2].
The matching figures for LLKCVRESDPSDPNKDMVVQLIDD [SRPK2]: 4.6 ± 0.41 and 4.57 ± 0.079.
The like results for LLMTSGVVLCEGVKWLSFHSGYDF [CNOT7] were, in that order, 3.33 ± 0.37 and 2.9 ± 0.39.
The like results for LLRHGMDRLWRPSKVLSLQDLCCR [RAB40B] were, in that order, 3.03 ± 0.09 and 2.97 ± 0.25.
On to LLRMCSHGEGKINYYNFVRAFSN [EFHC1], for which the protein stability index turned out to be 2.32 ± 0.66 under setting [3] and 2.08 ± 0.57 under setting [4].
Turning to LMPGVPPLMPGMPPVMPGMPPGLH [ZNF207], the protein stability index by setting is: under setting [1], 3.02 ± 0.33; under setting [2], 2.99 ± 0.32.
On to LMTCEMLNRRNGSLRIALSEHLKQ [EDNRA], for which the protein stability index under setting [1] amounted to 2.71 ± 0.17 and the protein stability index under setting [2] was determined as 2.72 ± 0.26.
The like results for LNIVERYDPKENKWTRVASMSTRR [KLHL20] were, in that order, 3.31 ± 0.084 and 3.39 ± 0.23.
The matching figures for LPHLVALTEQYTVTGLMEATQMMV [RHOBTB2]: 2.89 ± 0.67 and 2.86 ± 0.52.
In the case of LPMATVDIKNPEITTNRFYGPQVN [WASL], the protein stability index reads like this: under setting [1], 3.4 ± 0.75; under setting [2], 3.54 ± 0.34.
LPRKRQSLRSSSSKLAQLTLEQIL [INTS3] yielded a protein stability index under setting [1] of 2.34 ± 0.19 and a protein stability index under setting [2] of 2.44 ± 0.12.
The like results for LPSHPLELSEKNFQLNQDKMNFST [POMP] were, in that order, 3.84 ± 0.29 and 3.78 ± 0.21.
The matching figures for LPVETLGPASRMDPESERALQAPH [PBXIP1]: 4.58 ± 0.43 and 4.84 ± 0.33.
The like results for LQAKALQLIVTARTTRGLDPLFGM [INTS4] were, in that order, 2.88 ± 0.6 and 2.59 ± 0.66.
With LQLLREENRALQQLLEQKQAYWAQ [CBY2], the protein stability index came out at 2.62 ± 0.18 under setting [1] and 2.94 ± 0.31 under setting [2].
The matching figures for LQRLGELQSELAGVADFSATYLRC [INTS4]: 2.72 ± 0.22 and 2.93 ± 0.34.
For the sequence LQSTYATPVDMWSVGCIFAEMFRR [CDK4], the protein stability index runs as follows: under setting [1], 2.32 ± 0.42; under setting [2], 2.37 ± 0.41.
In turn, LRDHADSNIVIMLVGNKSDLRHLR [RAB11A] showed a protein stability index under setting [1] of 2.36 ± 0.24 and a protein stability index under setting [2] of 2.18 ± 0.38.
LREKLLEAEQSLRNLEDIHMSLEK [TEKT4]: the protein stability index came out at 3.03 ± 0.52 under setting [1] and 3.3 ± 0.63 under setting [2].
The matching figures for LRKAVLKNLYKLASQCCGVHVISL [PTGFR]: 2.79 ± 0.5 and 2.73 ± 0.99.
The matching figures for LRQLRELEEQFALEAGGYQAGAAR [PRPH]: 4.07 ± 0.3 and 4.24 ± 0.084.
On to LRSFEGLMGTIKSKVSGGKRAWP [TPD52L3], for which the protein stability index is, setting by setting: under setting [3], 2.94 ± 0.91; under setting [4], 3.63 ± 0.26.
On to LSATIGSILRELDTSMDGTEPPQN [SERTAD3], for which the protein stability index is, setting by setting: under setting [1], 4.1 ± 0.15; under setting [2], 4.26 ± 0.33.
The matching figures for LSIQLQPKETQPFPKSEQVYLHFL [ZNF232]: 2.4 ± 0.25 and 2.52 ± 0.35.
The like results for LSLVLGNVNVTLLSKQAKFAYKDE [TMEM120A] were, in that order, 2.59 ± 0.53 and 2.23 ± 0.28.
The like results for LSTKKSPCAGSTSLSHSPGCSSTQ [LCOR] were, in that order, 4.35 ± 0.22 and 4.27 ± 0.12.
In the case of LSVRSVFFGVFQSFVVLLYILDNE [CLPTM1], the protein stability index reads like this: under setting [1], 3.19 ± 0.75; under setting [2], 2.92 ± 0.55.
The like results for LTAKQLIKSIVEASKGCQLGKTEQ [TRIM63] were, in that order, 2.57 ± 0.18 and 2.38 ± 0.6.
Consider LTALLEKYTPSNKHGFSWAVPKFM [DLC1], for which the protein stability index by setting is: under setting [1], 2.6 ± 0.57; under setting [2], 2.09 ± 0.2.
For the sequence LTISPKAARVGLLQYSTQVHTEFT [MATN2], the protein stability index under setting [2] was 2.436 ± 0.019.
On to LTMTFPAGIVRVFSGTPPPPVLSF [FCHO1], for which the protein stability index turned out to be 2.92 ± 0.5 under setting [1] and 3.13 ± 0.54 under setting [2].
The sequence LTNNVDLDNTKKKMEIYQKENKDV [MNAT1] had a protein stability index under setting [1] of 5.34 ± 0.3 and a protein stability index under setting [2] of 5.31 ± 0.19.
The matching figures for LTRKGLVRVVFFPLFSNWWIQVTS [PHTF1]: 3.06 ± 0.039 and 2.81 ± 0.71.
On to LVAEILPAPGKLLGPCVVGYGIYY [SAT2], for which the protein stability index is 2.66 ± 0.94 under setting [1] and 2.53 ± 0.44 under setting [2].
LVDVRQEQLQGFNTRVRELAQAAG [DNAAF3]: the protein stability index is 3.67 ± 0.55 under setting [1] and 3.67 ± 0.29 under setting [2].
LVGIFILAVSRPRSSPDDLKALTR [SCARA5] displayed a protein stability index under setting [1] of 2.84 ± 0.39 and a protein stability index under setting [2] of 2.84 ± 0.69.
With LVKKLQDSVLERWVNDPQRMDKRT [GOLPH3L], the protein stability index reads like this: under setting [1], 2.69 ± 0.14; under setting [2], 2.93 ± 0.29.
The matching figures for LVLSEDRKSVRYTRQKKNLPDSPL [TRIM15]: 3.48 ± 0.33 and 3.77 ± 0.15.
The matching figures for LVNTSENLSKSRKILRSMSRKVTT [VTI1B]: 3.33 ± 0.29 and 3.57 ± 0.22.
The matching figures for LVQLPNINRVSTCYSEEITVCGDL [PPEF2]: 2.42 ± 0.42 and 2.65 ± 0.44.
